The source of these data is PMC7851962.

This assay deals with GFP-EB1-A7 (UniProt Q15691). The assay is described as follows: co-IP.
UniProt Q15691, sequence (Q15691 whole entry): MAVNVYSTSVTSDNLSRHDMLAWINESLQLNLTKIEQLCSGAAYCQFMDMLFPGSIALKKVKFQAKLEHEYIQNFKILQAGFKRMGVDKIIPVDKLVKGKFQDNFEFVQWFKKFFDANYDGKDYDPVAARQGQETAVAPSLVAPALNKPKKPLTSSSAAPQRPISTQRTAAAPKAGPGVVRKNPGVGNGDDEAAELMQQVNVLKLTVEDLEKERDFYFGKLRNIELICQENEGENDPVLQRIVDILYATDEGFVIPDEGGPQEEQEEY

B1: Arl4D^WT expressed in COS-7 cells (natural protein)
chain: MGNHLTEMAPTASSFLPHFQALHVVVIGLDSAGKTSLLYRLKFKEFVQSVPTKGFNTEKIRVPLGGSRGITFQVWDVGGQEKLRPLWRSYTRRTDGLVFVVDAAEAERLEEAKVELHRISRASDNQGVPVLVLANKQDQPGALSAAEVEKRLAVRELAAATLTHVQGCSAVDGLGLQQGLERLYEMILKRKKAARGGKKRR
For B1, the percent of the amount co-immunoprecipitated with WT EB1 was 50%.
